Source: PMC9482650, “Quantitative fragmentomics allow affinity mapping of interactomes” (Nature Communications, 2022)
Values belong to the binder of their own block, whether it stands above or below them.

Columns and labels:
Experiment in all cases: holdup assay
Parameters in all cases: key: below the threshold = too weak to quantify, mostly under pKd 3.1 to 4
Details in all cases: plain residues with an end cap or a label only (N-terminal biotin on a linker: ado-ado)
MPP2, Q14168 = target: T1, MPP2, Q14168
T1 sequence (Q14168 180-250, limits assumed, looked up): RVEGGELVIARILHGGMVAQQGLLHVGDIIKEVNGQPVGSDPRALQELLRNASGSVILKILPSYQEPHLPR

IL16_1, Q14005 = target: IL16_1, Q14005
TIAM2, Q8IVF5 = target: T2, TIAM2, Q8IVF5
T2 sequence (Q8IVF5 885-986, limits assumed, looked up): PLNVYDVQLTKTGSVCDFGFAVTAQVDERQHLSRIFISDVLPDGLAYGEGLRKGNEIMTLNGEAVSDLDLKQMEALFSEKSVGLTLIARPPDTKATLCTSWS

LNX2_2, Q8N448 = target: T3, LNX2_2, Q8N448
T3 sequence (Q8N448 334-432, limits assumed, looked up): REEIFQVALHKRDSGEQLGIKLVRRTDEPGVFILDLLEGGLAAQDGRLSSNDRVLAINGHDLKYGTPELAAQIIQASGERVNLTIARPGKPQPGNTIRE

DLG2_2, Q15700 = target: DLG2_2, Q15700
NHERF3_3, Q5T2W1 = target: T4, NHERF3_3, Q5T2W1
T4 sequence (Q5T2W1 238-333, limits assumed, looked up): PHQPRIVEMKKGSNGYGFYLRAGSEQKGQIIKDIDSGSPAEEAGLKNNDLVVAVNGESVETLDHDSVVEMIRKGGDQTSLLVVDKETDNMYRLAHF

TJP3_3, O95049 = target: T5, TJP3_3, O95049
T5 sequence (O95049 375-456, limits assumed, looked up): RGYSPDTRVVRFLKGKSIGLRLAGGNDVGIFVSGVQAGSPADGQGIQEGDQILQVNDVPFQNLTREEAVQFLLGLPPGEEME

GRIP1_5, Q9Y3R0 = target: T6, GRIP1_5, Q9Y3R0
T6 sequence (Q9Y3R0 568-668, limits assumed, looked up): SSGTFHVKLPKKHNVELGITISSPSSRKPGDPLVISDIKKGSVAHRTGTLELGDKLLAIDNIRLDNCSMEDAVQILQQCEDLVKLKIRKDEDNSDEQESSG

DLG4_1, P78352 = target: DLG4_1, P78352
PICK1, Q9NRD5 = target: PICK1, Q9NRD5
DLG4_2, P78352 = target: DLG4_2, P78352
MAGI2_6, Q86UL8 = target: MAGI2_6, Q86UL8
MAGI2_2, Q86UL8 = target: MAGI2_2, Q86UL8
TJP1_3, Q07157 = target: TJP1_3, Q07157
NHERF3_1, Q5T2W1 = target: T7, NHERF3_1, Q5T2W1
T7 sequence (Q5T2W1 4-100, limits assumed, looked up): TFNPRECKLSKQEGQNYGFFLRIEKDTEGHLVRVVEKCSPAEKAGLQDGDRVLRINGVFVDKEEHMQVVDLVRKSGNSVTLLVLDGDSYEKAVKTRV

FRMPD2_3, Q68DX3 = target: FRMPD2_3, Q68DX3
PCLO, Q9Y6V0 = target: T8, PCLO, Q9Y6V0
T8 sequence (Q9Y6V0 4491-4600, limits assumed, looked up): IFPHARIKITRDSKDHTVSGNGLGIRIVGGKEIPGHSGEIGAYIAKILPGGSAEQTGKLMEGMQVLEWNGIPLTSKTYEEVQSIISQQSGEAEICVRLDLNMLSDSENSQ

NHERF4_1, Q86UT5-2 = target: NHERF4_1, Q86UT5-2
GRID2IP_1, A4D2P6 = target: GRID2IP_1, A4D2P6
Inadl_6, Q8NI35 = target: Inadl_6, Q8NI35
PTPN3, P26045 = target: PTPN3, P26045
SHANK1, Q9Y566 = target: T9, SHANK1, Q9Y566
T9 sequence (Q9Y566 658-767, limits assumed, looked up): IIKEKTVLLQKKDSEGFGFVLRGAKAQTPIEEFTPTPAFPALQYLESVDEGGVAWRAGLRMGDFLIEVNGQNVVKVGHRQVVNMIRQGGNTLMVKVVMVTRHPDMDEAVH

NOS1, P29475 = target: NOS1, P29475
GORASP1, Q9BQQ3 = target: GORASP1, Q9BQQ3
DFNB31_3, Q9P202 = target: T10, DFNB31_3, Q9P202
T10 sequence (Q9P202 811-907, limits assumed, looked up): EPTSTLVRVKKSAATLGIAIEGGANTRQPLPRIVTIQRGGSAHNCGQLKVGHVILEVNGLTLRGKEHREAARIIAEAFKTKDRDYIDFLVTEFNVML

DLG5_1, Q8TDM6 = target: DLG5_1, Q8TDM6
Inadl_8, Q8NI35 = target: Inadl_8, Q8NI35
Sequence of Inadl_8, Q8NI35 (Q8NI35 1425-1530): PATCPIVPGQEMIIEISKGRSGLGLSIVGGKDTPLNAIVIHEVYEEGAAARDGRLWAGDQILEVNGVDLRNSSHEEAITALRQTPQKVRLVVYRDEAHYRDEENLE

Sequence of MAGI2_2, Q86UL8 (Q86UL8 410-522): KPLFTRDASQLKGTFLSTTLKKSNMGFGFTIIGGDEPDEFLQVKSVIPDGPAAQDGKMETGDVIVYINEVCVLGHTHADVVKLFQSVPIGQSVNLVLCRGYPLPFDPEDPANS
Sequence of GORASP1, Q9BQQ3 (Q9BQQ3 1-208): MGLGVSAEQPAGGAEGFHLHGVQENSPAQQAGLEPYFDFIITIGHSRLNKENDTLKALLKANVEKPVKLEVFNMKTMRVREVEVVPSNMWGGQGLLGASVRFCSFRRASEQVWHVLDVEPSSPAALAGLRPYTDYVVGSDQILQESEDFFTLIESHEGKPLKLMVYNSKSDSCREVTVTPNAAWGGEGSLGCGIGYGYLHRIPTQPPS
Sequence of NOS1, P29475 (P29475 9-101): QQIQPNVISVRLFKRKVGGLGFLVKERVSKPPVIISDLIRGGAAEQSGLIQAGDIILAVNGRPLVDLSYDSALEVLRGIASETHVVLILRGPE
Sequence of FRMPD2_3, Q68DX3 (Q68DX3 1073-1166): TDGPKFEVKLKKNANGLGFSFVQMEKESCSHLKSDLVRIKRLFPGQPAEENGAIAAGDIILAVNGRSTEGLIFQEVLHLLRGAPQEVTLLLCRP
Sequence of GRID2IP_1, A4D2P6 (A4D2P6 1-87): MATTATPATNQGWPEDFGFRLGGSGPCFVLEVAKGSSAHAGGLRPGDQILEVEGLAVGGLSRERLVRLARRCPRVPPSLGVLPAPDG
Sequence of DLG4_1, P78352 (P78352 62-152): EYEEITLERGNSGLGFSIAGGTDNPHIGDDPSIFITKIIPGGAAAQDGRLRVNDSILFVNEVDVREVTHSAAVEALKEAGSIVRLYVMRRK
Sequence of MAGI2_6, Q86UL8 (Q86UL8 1141-1229): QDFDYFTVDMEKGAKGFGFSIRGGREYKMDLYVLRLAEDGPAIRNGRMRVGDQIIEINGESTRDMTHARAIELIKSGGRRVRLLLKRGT
Sequence of PICK1, Q9NRD5 (Q9NRD5 17-115): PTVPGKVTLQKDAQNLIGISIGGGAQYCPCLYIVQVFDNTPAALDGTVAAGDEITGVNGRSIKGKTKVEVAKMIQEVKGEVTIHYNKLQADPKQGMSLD
Sequence of DLG4_2, P78352 (P78352 155-259): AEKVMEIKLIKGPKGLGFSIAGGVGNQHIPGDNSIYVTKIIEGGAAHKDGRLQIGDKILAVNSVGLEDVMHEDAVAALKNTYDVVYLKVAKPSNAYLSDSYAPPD
Sequence of DLG2_2, Q15700 (Q15700 189-283): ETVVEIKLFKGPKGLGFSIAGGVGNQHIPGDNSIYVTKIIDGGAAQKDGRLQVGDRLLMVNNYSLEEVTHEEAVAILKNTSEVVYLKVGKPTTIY
Sequence of Inadl_6, Q8NI35 (Q8NI35 1058-1167): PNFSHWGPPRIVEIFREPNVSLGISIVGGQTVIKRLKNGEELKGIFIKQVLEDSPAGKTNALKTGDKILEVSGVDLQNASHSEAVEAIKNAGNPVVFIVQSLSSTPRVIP
Sequence of TJP1_3, Q07157 (Q07157 416-512): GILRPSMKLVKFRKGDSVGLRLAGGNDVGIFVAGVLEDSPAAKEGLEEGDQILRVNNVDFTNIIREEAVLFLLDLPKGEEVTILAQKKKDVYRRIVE
Sequence of NHERF4_1, Q86UT5-2 (Q86UT5 other isoform, or with tags, fused parts or gaps): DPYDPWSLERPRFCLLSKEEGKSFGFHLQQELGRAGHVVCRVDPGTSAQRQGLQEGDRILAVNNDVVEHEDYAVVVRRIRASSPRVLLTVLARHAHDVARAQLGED
Sequence of PTPN3, P26045 (P26045 505-587): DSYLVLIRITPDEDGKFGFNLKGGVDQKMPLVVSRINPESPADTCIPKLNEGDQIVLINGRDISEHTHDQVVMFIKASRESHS
Sequence of IL16_1, Q14005 (Q14005 210-306): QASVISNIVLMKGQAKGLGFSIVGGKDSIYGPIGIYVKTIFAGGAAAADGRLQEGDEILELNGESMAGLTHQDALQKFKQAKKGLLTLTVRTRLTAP
Sequence of DLG5_1, Q8TDM6 (Q8TDM6 617-713): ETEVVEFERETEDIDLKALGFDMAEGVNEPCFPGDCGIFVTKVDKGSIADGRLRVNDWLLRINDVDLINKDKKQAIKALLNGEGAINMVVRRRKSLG

pKd (MPP2, Q14168): below the threshold
pKd (IL16_1, Q14005): below the threshold
pKd (TIAM2, Q8IVF5): below the threshold
pKd (LNX2_2, Q8N448): 4.22
pKd (DLG2_2, Q15700): 4.16
pKd (NHERF3_3, Q5T2W1): below the threshold
pKd (TJP3_3, O95049): below the threshold
pKd (GRIP1_5, Q9Y3R0): below the threshold
pKd (DLG4_1, P78352): 4.12
pKd (PICK1, Q9NRD5): below the threshold
pKd (DLG4_2, P78352): 4.21
pKd (MAGI2_6, Q86UL8): 3.97
pKd (MAGI2_2, Q86UL8): 3.51
pKd (TJP1_3, Q07157): below the threshold
pKd (NHERF3_1, Q5T2W1): 3.79
pKd (FRMPD2_3, Q68DX3): below the threshold
pKd (PCLO, Q9Y6V0): below the threshold
pKd (NHERF4_1, Q86UT5-2): below the threshold
pKd (GRID2IP_1, A4D2P6): below the threshold
pKd (Inadl_6, Q8NI35): below the threshold
pKd (PTPN3, P26045): 4.49
pKd (SHANK1, Q9Y566): 3.68
pKd (NOS1, P29475): below the threshold
pKd (GORASP1, Q9BQQ3): below the threshold
pKd (DFNB31_3, Q9P202): 4.05
pKd (DLG5_1, Q8TDM6): below the threshold
pKd (Inadl_8, Q8NI35): 3.59
B1: SLC2A3, P11169 (peptide)
chain: EPAKETTTNV

pKd (MPP2, Q14168): below the threshold
pKd (IL16_1, Q14005): below the threshold
pKd (TIAM2, Q8IVF5): 4.21
pKd (LNX2_2, Q8N448): 5.42
pKd (DLG2_2, Q15700): below the threshold
pKd (NHERF3_3, Q5T2W1): below the threshold
pKd (TJP3_3, O95049): 4.44
pKd (GRIP1_5, Q9Y3R0): below the threshold
pKd (DLG4_1, P78352): below the threshold
pKd (PICK1, Q9NRD5): below the threshold
pKd (DLG4_2, P78352): 3.51
pKd (MAGI2_6, Q86UL8): 3.73
pKd (MAGI2_2, Q86UL8): below the threshold
pKd (TJP1_3, Q07157): 4.11
pKd (NHERF3_1, Q5T2W1): 3.75
pKd (FRMPD2_3, Q68DX3): below the threshold
pKd (PCLO, Q9Y6V0): below the threshold
pKd (NHERF4_1, Q86UT5-2): 3.57
pKd (GRID2IP_1, A4D2P6): below the threshold
pKd (Inadl_6, Q8NI35): 3.69
pKd (PTPN3, P26045): 4.06
pKd (SHANK1, Q9Y566): 3.55
pKd (NOS1, P29475): 4.1
pKd (GORASP1, Q9BQQ3): 4.51
pKd (DFNB31_3, Q9P202): below the threshold
pKd (DLG5_1, Q8TDM6): below the threshold
pKd (Inadl_8, Q8NI35): below the threshold
B2: GJC1, P36383 (peptide)
chain: SGDGKTSVWI

pKd (MPP2, Q14168): below the threshold
pKd (IL16_1, Q14005): below the threshold
pKd (TIAM2, Q8IVF5): 4.09
pKd (LNX2_2, Q8N448): below the threshold
pKd (DLG2_2, Q15700): below the threshold
pKd (NHERF3_3, Q5T2W1): below the threshold
pKd (TJP3_3, O95049): below the threshold
pKd (GRIP1_5, Q9Y3R0): below the threshold
pKd (DLG4_1, P78352): below the threshold
pKd (PICK1, Q9NRD5): below the threshold
pKd (DLG4_2, P78352): below the threshold
pKd (MAGI2_6, Q86UL8): 3.58
pKd (MAGI2_2, Q86UL8): below the threshold
pKd (TJP1_3, Q07157): below the threshold
pKd (NHERF3_1, Q5T2W1): 3.64
pKd (FRMPD2_3, Q68DX3): below the threshold
pKd (PCLO, Q9Y6V0): below the threshold
pKd (NHERF4_1, Q86UT5-2): below the threshold
pKd (GRID2IP_1, A4D2P6): below the threshold
pKd (Inadl_6, Q8NI35): below the threshold
pKd (PTPN3, P26045): 4.52
pKd (SHANK1, Q9Y566): 3.54
pKd (NOS1, P29475): 3.75
pKd (GORASP1, Q9BQQ3): below the threshold
pKd (DFNB31_3, Q9P202): below the threshold
pKd (DLG5_1, Q8TDM6): below the threshold
pKd (Inadl_8, Q8NI35): below the threshold
B3: GRID2, O43424 (peptide)
chain: GNDPDRGTSI
